Measured values: patent US20210380703A1 (RIGEL PHARMACEUTICALS, published 2021)

B1: 367_F03 (antibody, V domains shown)
VH: EVQLLESGGGLVQPGGSLRLSCAASGFTFSSYSMNWVRQAPGKGLEWVAGINYNSGYKSYADSVKGRFTISRDNSKNTLYLQMNSLRAEDTAVYYCARSANWHDTALDYWGQGTLVTVSS
VL: DIQMTQSPSSLSASVGDRVTITCRASQSILSYVNWYQQKPGKAPKLVIYAATSLASGVPSRFSGSGSGTDFTLTISSLQPEDFATYYCQQSDDTPLTFGGGTKVEIK
B2: 368_A07 (antibody, V domains shown)
VH: EVQLLESGGGLVQPGGSLRLSCAASGFTFSSYSMNWVRQAPGKGLEWVAGINYNSGYTSYADSVKGRFTISRDNSKNTLYLQMNSLRAEDTAVYYCARSANWHDTHLDYWGQGTLVTVSS
VL: DIQMTQSPSSLSASVGDRVTITCRASQSILTYLNWYQQKPGKAPKLVIYATTSRASGVPSRFSGSGSGTDFTLTISSLQPEDFATYYCQQSNELPLTFGGGTKVEIK
B3: 367_F11 (antibody, V domains shown)
VH: EVQLLESGGGLVQPGGSLRLSCAASGFTFSSYSMNWVRQAPGKGLEWVAGINYNSGYTGYADSVKGRFTISRDNSKNTLYLQMNSLRAEDTAVYYCARSANWHDTHLDYWGQGTLVTVSS
VL: not shown
B4: 368_B01 (antibody, V domains shown)
VH: EVQLLESGGGLVQPGGSLRLSCAASGFTFSSYGMNWVRQAPGKGLEWVSGINYNSGYKSYADSVKGRFTISRDNSKNTLYLQMNSLRAEDTAVYYCARSANWHDTALDYWGQGTLVTVSS
VL: DIQMTQSPSSLSASVGDRVTITCRASQSISSYLNWYQQKPGKAPKLLIYAATSRASGVPSRFSGSGSGTDFTLTISSLQPEDFATYYCQQSYETPLTFGGGTKVEIK
B5: 368_A01 (antibody, V domains shown)
VH: EVQLLESGGGLVQPGGSLRLSCAASGFTFSSYGMNWVRQAPGKGLEWVSNINYNGGYTSYADSVKGRFTISRDNSKNTLYLQMNSLRAEDTAVYYCARSANWHDTALDYWGQGTLVTVSS
VL: DIQMTQSPSSLSASVGDRVTITCRASQSIISYLNWYQQKPGKAPKLLIYAATSRHSGVPSRFSGSGSGTDFTLTISSLQPEDFATYYCQQSYDNPLTFGGGTKVEIK
B6: 367_G10 (antibody, V domains shown)
VH: EVQLLESGGGLVQPGGSLRLSCAASGFTFDDYGMNWVRQAPGKGLEWVSGINYNGGYTSYADSVKGRFTISRDNSKNTLYLQMNSLRAEDTAVYYCARSANWHDTALDYWGQGTLVTVSS
VL: DIQMTQSPSSLSASVGDRVTITCRASQSIISYVNWYQQKPGKAPKLLIYAATSRASGVPSRFSGSGSGTDFTLTISSLQPEDFATYYCQQSYDSPLTFGGGTKVEIK
B7: 368_A09 (antibody, V domains shown)
VH: EVQLLESGGGLVQPGGSLRLSCAASGFTFDSYSMNWVRQAPGKGLEWVSGINYNGGYTSYADSVKGRFTISRDNSKNTLYLQMNSLRAEDTAVYYCARSANWHDTHLDYWGQGTLVTVSS
VL: DIQMTQSPSSLSASVGDRVTITCRASQSILSYVNWYQQKPGKAPKLLIYAVTSRASGVPSRFSGSGSGTDFTLTISSLQPEDFATYYCQQSYDSPLTFGGGTKVEIK
B8: 368_A05 (antibody, V domains shown)
VH: EVQLLESGGGLVQPGGSLRLSCAASGFTFSSYSMNWVRQAPGKGLEWVAGINYNSGYTGYADSVKGRFTISRDNSKNTLYLQMNSLRAEDTAVYYCARSANWHDTALDYWGQGTLVTVSS
VL: DIQMTQSPSSLSASVGDRVTITCRASQSIVSYLNWYQQKPGKAPKLVIYAATSRASGVPSRFSGSGSGTDFTLTISSLQPEDFATYYCQQSYDSPLTFGGGTKVEIK
B9: 367_F07 (antibody, V domains shown)
VH: EVQLLESGGGLVQPGGSLRLSCAASGFTFDSYGMHWVRQAPGKGLEWVANINYNGGYTGYADSVKGRFTISRDNSKNTLYLQMNSLRAEDTAVYYCARSANWHDTALDYWGQGTLVTVSS
VL: DIQMTQSPSSLSASVGDRVTITCRASQSIISYVNWYQQKPGKAPKLLIYAATSRASGVPSRFSGSGSGTDFTLTISSLQPEDFATYYCQQSYETPLTFGGGTKVEIK
B10: 368_B06 (antibody, V domains shown)
VH: EVQLLESGGGLVQPGGSLRLSCAASGFTFDSYGMHWVRQAPGKGLEWVSGINYNSGYTSYADSVKGRFTISRDNSKNTLYLQMNSLRAEDTAVYYCARSANWHDTALDYWGQGTLVTVSS
VL: not shown
B11: 367_G06 (antibody, V domains shown)
VH: EVQLLESGGGLVQPGGSLRLSCAASGFTFSSYGMNWVRQAPGKGLEWVSGINYNSGYKSYADSVKGRFTISRDNSKNTLYLQMNSLRAEDTAVYYCARSANWHDTHLDYWGQGTLVTVSS
VL: DIQMTQSPSSLSASVGDRVTITCRASQSILTYVNWYQQKPGKAPKLLIYATTSLHSGVPSRFSGSGSGTDFTLTISSLQPEDFATYYCQQSYDTPLTFGGGTKVEIK
B12: 367_H06 (antibody, V domains shown)
VH: EVQLLESGGGLVQPGGSLRLSCAASGFTFSSYGMNWVRQAPGKGLEWVSNINYNGGYTGYADSVKGRFTISRDNSKNTLYLQMNSLRAEDTAVYYCARSANWHDTHLDYWGQGTLVTVSS
VL: DIQMTQSPSSLSASVGDRVTITCRASQSIITYLNWYQQKPGKAPKLLIYAATSRASGVPSRFSGSGSGTDFTLTISSLQPEDFATYYCQQSYDTPLTFGGGTKVEIK
B13: 367_G05 (antibody, V domains shown)
VH: EVQLLESGGGLVQPGGSLRLSCAASGFTFSDYGMNWVRQAPGKGLEWVANINYNGGYTSYADSVKGRFTISRDNSKNTLYLQMNSLRAEDTAVYYCARSANWHDTALDYWGQGTLVTVSS
VL: DIQMTQSPSSLSASVGDRVTITCRASQSIVSYLNWYQQKPGKAPKLVIYAATSLASGVPSRFSGSGSGTDFTLTISSLQPEDFATYYCQQSYDTPLTFGGGTKVEIK
B14: 367_H11 (antibody, V domains shown)
VH: EVQLLESGGGLVQPGGSLRLSCAASGFTFSSYGMNWVRQAPGKGLEWVAGINYNGGYKGYADSVKGRFTISRDNSKNTLYLQMNSLRAEDTAVYYCARSANWHDTALDYWGQGTLVTVSS
VL: DIQMTQSPSSLSASVGDRVTITCRASQSIISYVNWYQQKPGKAPKLVIYAATSRASGVPSRFSGSGSGTDFTLTISSLQPEDFATYYCQQSYNSPLTFGGGTKVEIK

Legend:
Goat anti-Human Kappa = target: T1, Goat anti-Human Kappa; test: ELISA, positive control
T1 construct: Positive control of the ELISA; also called biotinylated goat anti-human kappa light chain
Outline: (§1)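 mAb binding by ELISA; antigens: hu ACVR2A, mu ACVR2A; pos ctrl biotinylated goat anti-hu kappa LC; neg ctrl hu Fc.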

Mouse ACVR2A = Mouse ACVR2A (mouse, UniProt P27038 20-135, limits assumed); test: ELISA
Mouse ACVR2A, sequence (P27038 20-135 limits assumed): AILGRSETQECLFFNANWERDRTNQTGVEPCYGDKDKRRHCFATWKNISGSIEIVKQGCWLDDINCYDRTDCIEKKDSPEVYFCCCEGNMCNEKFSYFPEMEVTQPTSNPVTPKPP
Outline: as §1

Human ACVR2A = target: T2, Human ACVR2A (human, UniProt P27037 20-135, limits assumed); test: ELISA
T2 construct: also called activin receptor, type II A
T2 sequence (P27037 20-135 limits assumed): as the sequence (P27038 20-135 limits assumed) above, with R20K, I73V counted along it
Outline: as §1
Also: test concentration or dose not given here.

| Binder | optical density (Goat anti-Human Kappa) | optical density (Mouse ACVR2A) | optical density (Human ACVR2A) |
| --- | --- | --- | --- |
| B1 | 3.45 OD | 2.39 OD | 2.1 OD |
| B2 | 3.65 OD | 2.31 OD | 2.11 OD |
| B3 | 3.48 OD | 1.87 OD | 1.71 OD |
| B4 | 3.71 OD | 2.59 OD | 2.61 OD |
| B5 | 3.68 OD | 2.9 OD | 2.99 OD |
| B6 | 3.45 OD | 2.32 OD | 2.12 OD |
| B7 | 3.55 OD | 2.63 OD | 2.51 OD |
| B8 | 3.46 OD | 2.7 OD | 2.71 OD |
| B9 | 3.26 OD | 2.25 OD | 2.13 OD |
| B10 | 3.16 OD | 2.34 OD | 2.06 OD |
| B11 | 3.35 OD | 2.81 OD | 2.64 OD |
| B12 | 3.65 OD | 3.08 OD | 2.69 OD |
| B13 | 3.37 OD | 2.71 OD | 2.41 OD |
| B14 | 3.61 OD | 2.69 OD | 2.37 OD |
